Laboratory results reported in publication PMC3319458 (2012).

Target: Nfs1/Isd11/Isu2 (SDU) complex (Homo sapiens, UniProt Q9Y697)
Assay: cysteine desulfurase activity titration

B1: Frataxin 82-210 (protein)
chain: GTLGHPGSLDETTYERLAEETLDSLAEFFEDLADKPYTFEDYDVSFGSGVLTVKLGGDLGTYVINKQTPNKQIWLSSPSSGPKRYDWTGKNWVYSHDGVSLHELLAAELTKALKTKLDLSSLAYSGKDA
Kd: 220 nM
